From publication PMC11872457 (2025)

Molecular target: T1, SARS-CoV-2 replicase polyprotein 1ab (CoV-YL8; identical in HKU1 and NL63) peptide on HLA-B*35:03 (human)
T1 peptide: YPDPSRIL
Test: cytokine release

B1: CoV-YL8 TCR (TCR)
alpha TRAV1-1 TRAJ4 CDR3: CAVRGISGGYNKLIF
beta TRBV19 TRBJ1-6 CDR3: CASSIEGSYNSPLHF
- binding result: recognises
